Experimental data as given in patent CN116265487A (SANYOU BIO INC, dated 2023).
Where “and” joins values, the source holds several entries; their conditions need not be identical. Equal values may be shown once.

T1: 重组蛋白hANG2-His (human, UniProt O15123 19-496)
T1 construct: Made in Expi293 cells; not shown: C-terminal His tag
T1 sequence: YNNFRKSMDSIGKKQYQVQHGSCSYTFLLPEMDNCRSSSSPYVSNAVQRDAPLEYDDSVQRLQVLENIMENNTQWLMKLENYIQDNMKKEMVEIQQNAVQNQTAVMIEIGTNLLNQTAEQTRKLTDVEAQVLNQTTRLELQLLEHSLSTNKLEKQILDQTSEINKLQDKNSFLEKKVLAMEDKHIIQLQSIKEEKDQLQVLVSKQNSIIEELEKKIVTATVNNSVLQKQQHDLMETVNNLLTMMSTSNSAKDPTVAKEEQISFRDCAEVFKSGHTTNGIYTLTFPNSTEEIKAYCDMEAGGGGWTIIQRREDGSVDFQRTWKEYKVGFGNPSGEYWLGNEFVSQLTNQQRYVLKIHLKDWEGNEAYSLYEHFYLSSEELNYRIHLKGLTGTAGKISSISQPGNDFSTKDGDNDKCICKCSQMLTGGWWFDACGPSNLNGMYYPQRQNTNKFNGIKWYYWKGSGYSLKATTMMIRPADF

B1: 全人源抗体17 (antibody, human IgG1, kappa, V domains shown)
VH: EVQLVESGGGVVKPGGSLRLSCAASGFTFNKYTINWVRQTPGKGLELVADISSGGDYVNYADSVKGRFTISRDNAKDSVYLLMNGLRAEDTAVYYCARDALTYSNNWLDSWGQGTLVTVSS
VL: DIQLTQSPSFLSASVGDRVTITCRASQGISSYLAWYQQKPGKAPKLLIYAASTLQSGVPSRFSGGGYGTDFTLTISSLQPEDFATYYCQQFESYPLTFGGGTRLEIKR
notes: Fully human anti-ANG2 antibody in IgG1 format
B2: 全人源抗体78A74-7 (antibody, human IgG1, kappa, V domains shown)
VH: QVQLVESGGGLVKPGGSLRLSCAASGFTFSSYSMNWVRQAPGKGLEWVAVISYDGSNKYYADSVKGRFTISRDNSKNTLYLQMNSLRAEDTAVYYCAKATLDGYTAGYYYGMDVWGQGTTVTVSS
VL: EIVLTQSPATLSLSPGERATLSCRASQSVSSYLAWYQQKPGQAPRLLIYDASNRATGIPARFSGSGSGTDFTLTISSLEPEDFAVYYCQLMSNWPPEWTFGQGTKVEIKR
notes: as for B1

Tests used:
重组蛋白hANG2-His = target: T1, 重组蛋白hANG2-His; test: ELISA, hANG2-His coated, anti-human-IgG-Fc-HRP detection
hANG1-Fc = hANG1-Fc (human, UniProt Q15389 16-498, limits assumed); test: ELISA, 2μg/mL hANG1-Fc coated, anti-human Kappa HRP detection
生物素标记的hANG2-Fc蛋白 = target: T2, 生物素标记的hANG2-Fc蛋白 (human, biotin-labelled (sites not given)); test: FACS blocking of biotin-hANG2-Fc binding to huTie2-HEK293 cells
T2 construct: also called biotin-hANG2-Fc

Sequence of hANG1-Fc (Q15389 other isoform, or with tags, fused parts or gaps limits assumed): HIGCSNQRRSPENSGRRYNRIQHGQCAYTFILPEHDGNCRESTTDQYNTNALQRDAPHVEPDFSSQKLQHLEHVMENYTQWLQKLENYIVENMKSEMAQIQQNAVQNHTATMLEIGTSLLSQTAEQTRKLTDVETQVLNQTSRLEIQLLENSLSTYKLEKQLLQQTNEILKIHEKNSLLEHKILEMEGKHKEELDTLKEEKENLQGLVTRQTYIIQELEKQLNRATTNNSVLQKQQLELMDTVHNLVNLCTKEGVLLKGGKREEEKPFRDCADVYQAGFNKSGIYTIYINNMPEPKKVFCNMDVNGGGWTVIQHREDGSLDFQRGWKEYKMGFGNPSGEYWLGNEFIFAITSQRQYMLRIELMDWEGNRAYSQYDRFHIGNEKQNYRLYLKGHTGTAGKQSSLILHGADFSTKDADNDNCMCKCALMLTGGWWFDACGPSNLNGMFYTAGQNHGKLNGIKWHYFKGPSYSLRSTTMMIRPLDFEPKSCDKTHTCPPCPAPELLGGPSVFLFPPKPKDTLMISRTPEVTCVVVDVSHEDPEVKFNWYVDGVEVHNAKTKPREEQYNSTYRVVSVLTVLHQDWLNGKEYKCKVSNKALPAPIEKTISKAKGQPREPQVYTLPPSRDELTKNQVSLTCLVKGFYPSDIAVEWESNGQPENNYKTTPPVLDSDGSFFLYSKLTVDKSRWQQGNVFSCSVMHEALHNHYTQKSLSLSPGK

Row | Binder | binding result (重组蛋白hANG2-His) | binding result (hANG1-Fc) | IC50 (生物素标记的hANG2-Fc蛋白)
1 | B1 | binds | no binding | 
2 | B2 | binds | no binding | 0.226 nM and 0.44 nM
